The target in test [1] is HIV-1 92US657 Env (on virus) (HIV-1 isolate 92US657). The experiment in a line: cell-based or functional assay.
Test [2] concerns the target HIV-1 92US712 Env (on virus) (HIV-1 isolate 92US712). The experiment in a line: cell-based or functional assay.
Test [3] deals with HIV-1 92US727 Env (on virus) (HIV-1 isolate 92US727). The experiment in a line: cell-based or functional assay.
In test [4] the target is HIV-1 BaL Env (on virus) (HIV-1 strain BaL). The experiment in a line: cell-based or functional assay.
The target in test [5] is HIV-1 93HT593 Env (on virus) (HIV-1 isolate 93HT593). The experiment in a line: cell-based or functional assay.
The target in test [6] is human FcγRIIIA on primary NK effector cells (human, UniProt P08637 17-254). As to the kind of experiment: cell-based or functional assay.
Chain of human FcγRIIIA on primary NK effector cells (P08637 17-254): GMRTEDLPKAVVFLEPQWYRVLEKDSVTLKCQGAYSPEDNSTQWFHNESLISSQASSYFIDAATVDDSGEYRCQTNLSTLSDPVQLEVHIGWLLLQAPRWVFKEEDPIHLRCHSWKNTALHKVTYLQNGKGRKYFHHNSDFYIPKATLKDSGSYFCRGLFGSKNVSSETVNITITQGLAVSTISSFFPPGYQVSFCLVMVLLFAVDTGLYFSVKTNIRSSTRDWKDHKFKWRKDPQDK
Test [7] addresses T1, Human FcRn (human, UniProt P55899 24-297; P61769 21-119).
T1 construct: also called neonatal Fc receptor
The experiment in a line: ELISA, ratio of EC50 at pH 7.0 to EC50 at pH 6.0. A general note: ELISA stands for enzyme-linked immunosorbent assay.
Procedure: (§1) The binding of antibodies to FcRn of various species at different pHs was determined. A 96-well Maxisorp plate was coated with 100 ul of 5 μg/ml FcRn. The plate was incubated overnight at 4° C., and then blocked with 4% skim milk for 2 hr at room temperature after washing 3 times with 0.05% Tween 20 washing buffer. The plate was incubated with 3 fold serial dilution of primary antibody for 1 hr at room temperature. The plate was then washed 3 times and 100 of Fab-anti-human Fab-HRP or Goat anti-human IgG-HRP secondary antibody diluted in 4% skimmed milk was added. Plates were then incubated 50 min at room temperature, washed three times, and 100 μL fresh TMB substrate was added. Plates were developed for 3 minutes on bench with gentle shaking. Plate was quenched with 100 μL 1M HCl, shaken briefly, read at A450 on a spectramax m5 plate reader.

Test [8] has as its target T1, Human FcRn. As to the kind of experiment: ELISA, FcRn coated on plate, pH 7.0.
Procedure: as §1
Test [9] deals with T1, Human FcRn. As to the kind of experiment: ELISA, FcRn coated on plate, pH 6.0.
Procedure: as §1
Test [10] concerns the target T1, Human FcRn. The experiment in a line: ELISA, pH 7.0/6.0 ratio relative to PGT121.
Procedure: as §1

T1 sequence (P55899 24-297 limits assumed, chain 1 of 2): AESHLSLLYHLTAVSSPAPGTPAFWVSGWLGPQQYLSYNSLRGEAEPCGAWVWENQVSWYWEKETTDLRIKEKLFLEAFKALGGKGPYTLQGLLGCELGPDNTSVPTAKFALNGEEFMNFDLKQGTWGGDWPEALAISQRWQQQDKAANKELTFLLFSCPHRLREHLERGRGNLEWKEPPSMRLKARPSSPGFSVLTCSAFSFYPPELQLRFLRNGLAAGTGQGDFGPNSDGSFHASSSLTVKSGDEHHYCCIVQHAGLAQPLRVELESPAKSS
T1 sequence (P61769 21-119 limits assumed, chain 2 of 2): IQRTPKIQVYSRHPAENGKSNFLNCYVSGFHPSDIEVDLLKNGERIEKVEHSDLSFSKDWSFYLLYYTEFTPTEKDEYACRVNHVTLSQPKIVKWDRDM

B1: PGT121.60 hIgG1/hLambda (antibody)
heavy: QMQLQESGPGLVKPSETLSLTCSVSGASISDSYWSWIRRSPGKGLEWIGYVHKSGDTNYNPSLKSRVHLSLDTSKNQVSLSLTGVTAADSGKYYCARTLHGRRIYGIVAFNEWFTYFYMDVWGTGTQVTVSSASTKGPSVFPLAPSSKSTSGGTAALGCLVKDYFPEPVTVSWNSGALTSGVHTFPAVLQSSGLYSLSSVVTVPSSSLGTQTYICNVNHKPSNTKVDKKVEPKSCDKTHTCPPCPAPELLAGPDVFLFPPKPKDTLMISRTPEVTCVVVDVSHEDPEVKFNWYVDGVEVHNAKTKPREEQYNSTYRVVSVLTVLHQDWLNGKEYKCKVSNKALPLPEEKTISKAKGQPREPQVYTLPPSREEMTKNQVSLTCLVKGFYPSDIAVEWESNGQPENNYKTTPPVLDSDGSFFLYSKLTVDKSRWQQGNVFSCSVLHEALHSHYTQKSLSLSPGK
light: not shown
As to B1, the “neutralization IC50, HIV-1 US657, CEM.NKr.CCR5.Luc assay” value in [1] came out at 62 ng/mL. Moreover, in [2], the “neutralization IC50, HIV-1 US712, CEM.NKr.CCR5.Luc assay” value came to 8 ng/mL. Further, the “neutralization IC50, HIV-1 US727, CEM.NKr.CCR5.Luc assay” value in [3] is 7 ng/mL. Besides, in [4], the “neutralization IC50, HIV-1 BaL, CEM.NKr.CCR5.Luc assay” value came out at 7 ng/mL. The “neutralization IC50, HIV-1 HT593, CEM.NKr.CCR5.Luc assay” value in test [5] came to 141 ng/mL.

B2: PGT121.42 hIgG1/hLambda (antibody)
heavy: QMQLQESGPGLVKPSETLSLTCSVSGASISDSYWSWIRRSPGKGLEWIGYVHKSGDTNYNPSLKSRVHLSLDTSKNQVSLSLSSVTAADSGKYYCARTLHGRRIYGIVAFNEWFTYFYMDVWGKGTQVTVSSASTKGPSVFPLAPSSKSTSGGTAALGCLVKDYFPEPVTVSWNSGALTSGVHTFPAVLQSSGLYSLSSVVTVPSSSLGTQTYICNVNHKPSNTKVDKKVEPKSCDKTHTCPPCPAPELLAGPDVFLFPPKPKDTLMISRTPEVTCVVVDVSHEDPEVKFNWYVDGVEVHNAKTKPREEQYNSTYRVVSVLTVLHQDWLNGKEYKCKVSNKALPLPEEKTISKAKGQPREPQVYTLPPSREEMTKNQVSLTCLVKGFYPSDIAVEWESNGQPENNYKTTPPVLDSDGSFFLYSKLTVDKSRWQQGNVFSCSVLHEALHSHYTQKSLSLSPGK
light: not shown
notes: also called PTG121.42
As usually defined, the EC50 is the concentration that produces a half-maximal response. The low end stands for an effect from little substance, the high end for a need for much substance. On to B2, for which, in [6], the “ADCC AUC, NK donor A4813, primary CD4+ T cells infected with HT593” value (“ADCC AUC, NK donor A4813 … with HT593” below) came to 191; the “ADCC AUC, NK donor A4813, primary CD4+ T cells infected with US657” value (shortened to “ADCC AUC, NK donor A4813 … with US657”) is 222; the “ADCC EC50, NK donor A4813, primary CD4+ T cells infected with HT593” value (“ADCC EC50, NK donor A4813 … with HT593” for short) came out at 4.9 nM; the “ADCC EC50, NK donor A4813, primary CD4+ T cells infected with US657” value (“ADCC EC50, NK donor A4813 … with US657” for short) was 1.4 nM. For the same molecule, in test [6], the “ADCC Emax, NK donor A4813, primary CD4+ T cells infected with HT593” value (shortened to “ADCC Emax, NK donor A4813 … with HT593”) is 71% and the “ADCC Emax, NK donor A4813, primary CD4+ T cells infected with US657” value (from here on “ADCC Emax, NK donor A4813 … with US657”) amounted to 72%. Moreover, the “Ratio pH 7.0/6.0” value in test [7] was 170. Also, the EC50 in test [8] came out at 69.8 nM. In [9], this molecule had an EC50 of 0.41 nM. Besides, the “Fold vs PGT121” value in test [10] stood at 5 fold.

B3: PGT121.64 hIgG1/hLambda (antibody)
heavy: QLQLQESGPGLVKPSETLSLTCSVSGASISDAYWSWIRRSPGKGLEWIGYVHKSGDTNYNPSLKSRVHLSLDTSKNQVSLSLTGVTAADSGKYYCARALHGRRIYGIVAFNEWFTYFYMDVWGTGTQVTVSSASTKGPSVFPLAPSSKSTSGGTAALGCLVKDYFPEPVTVSWNSGALTSGVHTFPAVLQSSGLYSLSSVVTVPSSSLGTQTYICNVNHKPSNTKVDKKVEPKSCDKTHTCPPCPAPELLAGPDVFLFPPKPKDTLMISRTPEVTCVVVDVSHEDPEVKFNWYVDGVEVHNAKTKPREEQYNSTYRVVSVLTVLHQDWLNGKEYKCKVSNKALPLPEEKTISKAKGQPREPQVYTLPPSREEMTKNQVSLTCLVKGFYPSDIAVEWESNGQPENNYKTTPPVLDSDGSFFLYSKLTVDKSRWQQGNVFSCSVLHEALHSHYTQKSLSLSPGK
light: not shown
With B3, in test [6], the “ADCC AUC, NK donor A4813 … with HT593” value amounted to 167; the “ADCC AUC, NK donor A4813 … with US657” value is 188; the “ADCC EC50, NK donor A4813 … with HT593” value is 1.4 nM; the “ADCC EC50, NK donor A4813 … with US657” value is 1.6 nM. Further, in test [6], the “ADCC Emax, NK donor A4813 … with HT593” value worked out at 66% and the “ADCC Emax, NK donor A4813 … with US657” value turned out to be 70%. In addition, the “Ratio pH 7.0/6.0” value in [7] is 79. The midpoint of the response in test [8], the EC50, lay at 125 nM. In [9], this molecule returned a half-maximal effective concentration (EC50) of 1.59 nM. Besides, the “Fold vs PGT121” value in [10] came out at 2 fold.

B4: PGT121.61 hIgG1/hLambda (antibody)
heavy: QMQLQESGPGLVKPSETLSLTCSVSGASISDSYWSWIRRSPGKGLEWIGYVHKSGDTNYNPSLKSRVHLSLDTSKNQVSLSLTGVTAADSGKYYCARTLHGRRIYGIVAFNEWFTYFYMDVWGTGTQVTVSSASTKGPSVFPLAPSSKSTSGGTAALGCLVKDYFPEPVTVSWNSGALTSGVHTFPAVLQSSGLYSLSSVVTVPSSSLGTQTYICNVNHKPSNTKVDKKVEPKSCDKTHTCPPCPAPELLAGPDVFLFPPKPKDTLMISRTPEVTCVVVDVSHEDPEVKFNWYVDGVEVHNAKTKPREEQYNSTYRVVSVLTVLHQDWLNGKEYKCKVSNKALPLPEEKTISKAKGQPREPQVYTLPPSREEMTKNQVSLTCLVKGFYPSDIAVEWESNGQPENNYKTTPPVLDSDGSFFLYSKLTVDKSRWQQGNVFSCSVLHEALHSHYTQKSLSLSPGK
light: SDISVAPGETARISCGEKSLGSRAVQWYQHRAGQAPSLIIYNNQDRPSGIPERFSGSPDSRPGTTATLTITSVEAGDEADYYCHIWDSRVPTKWVFGGGTKLTVLGQPKAAPSVTLFPPSSEELQANKATLVCLISDFYPGAVTVAWKADSSPVKAGVETTTPSKQSNNKYAASSYLSLTPEQWKSHRSYSCQVTHEGSTVEKTVAPTECS
Consider B4, for which, in [6], the “ADCC AUC, NK donor A4813 … with HT593” value was 169; the “ADCC AUC, NK donor A4813 … with US657” value was 190; the “ADCC EC50, NK donor A4813 … with HT593” value turned out to be 2.2 nM; the “ADCC EC50, NK donor A4813 … with US657” value stood at 1.3 nM. In test [6], the “ADCC Emax, NK donor A4813 … with HT593” value came to 70% and the “ADCC Emax, NK donor A4813 … with US657” value was 72%. Further, in [7], the “Ratio pH 7.0/6.0” value came to 1070. The EC50 in test [8] was 140 nM. For the same molecule, the response in [9] was half-maximal at 0.13 nM (EC50). The “Fold vs PGT121” value in [10] was 33 fold.

B5: PGT121.65 hIgG1/hLambda (antibody)
heavy: QLQLQESGPGLVKPSETLSLTCSVSGASISDAYWSWIRRSPGKGLEWIGYVHKSGDTNYNPSLKSRVHLSLDTSKNQVSLSLTGVTAADSGKYYCARALHGRRIYGIVAFNEWFTYFYMDVWGTGTQVTVSSASTKGPSVFPLAPSSKSTSGGTAALGCLVKDYFPEPVTVSWNSGALTSGVHTFPAVLQSSGLYSLSSVVTVPSSSLGTQTYICNVNHKPSNTKVDKKVEPKSCDKTHTCPPCPAPELLAGPDVFLFPPKPKDTLMISRTPEVTCVVVDVSHEDPEVKFNWYVDGVEVHNAKTKPREEQYNSTYRVVSVLTVLHQDWLNGKEYKCKVSNKALPLPEEKTISKAKGQPREPQVYTLPPSREEMTKNQVSLTCLVKGFYPSDIAVEWESNGQPENNYKTTPPVLDSDGSFFLYSKLTVDKSRWQQGNVFSCSVLHEALHSHYTQKSLSLSPGK
light: SDISVAPGETARISCGEKSLGSRAVQWYQHRAGQAPSLIIYNNQDRPSGIPERFSGSPDSRPGTTATLTITSVEAGDEADYYCHIWDSRVPTKWVFGGGTKLTVLGQPKAAPSVTLFPPSSEELQANKATLVCLISDFYPGAVTVAWKADSSPVKAGVETTTPSKQSNNKYAASSYLSLTPEQWKSHRSYSCQVTHEGSTVEKTVAPTECS
Turning to B5, in [6], the “ADCC AUC, NK donor A4813 … with HT593” value stood at 158; the “ADCC AUC, NK donor A4813 … with US657” value stood at 190; the “ADCC EC50, NK donor A4813 … with HT593” value was 2.6 nM; the “ADCC EC50, NK donor A4813 … with US657” value is 3.2 nM. Moreover, in test [6], the “ADCC Emax, NK donor A4813 … with HT593” value came out at 71% and the “ADCC Emax, NK donor A4813 … with US657” value was determined as 75%. Further, the “Ratio pH 7.0/6.0” value in [7] is 182. Also, the midpoint of the response in test [8], the EC50, lay at 104 nM. The response in test [9] was half-maximal at 0.57 nM (EC50). Moreover, in [10], the “Fold vs PGT121” value came to 6 fold.

B6: PGT121.56 hIgG1/hLambda (antibody)
heavy: QMQLQESGPGLVKPSETLSLTCSVSGASISDSYWSWIRRSPGKGLEWIGYVHKSGDTNYSPSLKSRVNLSLDTSKNQVSLSLVAATAADSGKYYCARTLHGRRIYGIVAFNEWFTYFYMDVWGNGTQVTVSSASTKGPSVFPLAPSSKSTSGGTAALGCLVKDYFPEPVTVSWNSGALTSGVHTFPAVLQSSGLYSLSSVVTVPSSSLGTQTYICNVNHKPSNTKVDKKVEPKSCDKTHTCPPCPAPELLAGPDVFLFPPKPKDTLMISRTPEVTCVVVDVSHEDPEVKFNWYVDGVEVHNAKTKPREEQYNSTYRVVSVLTVLHQDWLNGKEYKCKVSNKALPLPEEKTISKAKGQPREPQVYTLPPSREEMTKNQVSLTCLVKGFYPSDIAVEWESNGQPENNYKTTPPVLDSDGSFFLYSKLTVDKSRWQQGNVFSCSVLHEALHSHYTQKSLSLSPGK
light: not shown
Regarding B6, in test [6], the “ADCC AUC, NK donor A4813 … with HT593” value was 161; the “ADCC AUC, NK donor A4813 … with US657” value was determined as 219; the “ADCC EC50, NK donor A4813 … with HT593” value amounted to 6.3 nM; the “ADCC Emax, NK donor A4813 … with HT593” value was determined as 72%. In addition, the “ADCC Emax, NK donor A4813 … with US657” value in [6] amounted to 71%. Also, the EC50 in test [8] came to 102 nM. Also, in test [9], the EC50 turned out to be 0.47 nM.

The values above are taken from patent US20210155676A1 (Gilead, published 2021).
